B1: POC1 promoter probe (dsDNA)
DNA 1: ACGTAAATTTTTTGAATAAGACAAATGGTCAAACATGTAAGAAAAGAAAGTCAACGGCGTCATCTATTTAAAAAACGGAT
DNA 2: ATCCGTTTTTTAAATAGATGACGCCGTTGACTTTCTTTTCTTACATGTTTGACCATTTGTCTTATTCAAAAAATTTACGT
B2: ORK10 promoter probe (dsDNA)
DNA 1: ATCTGGTCAACAATGTATTACACACTGCTTTGACTACTTCCCCCAAAAAAGTACACACTGCTTTGACTCAGGTCAAACTT
DNA 2: AAGTTTGACCTGAGTCAAAGCAGTGTGTACTTTTTTGGGGGAAGTAGTCAAAGCAGTGTGTAATACATTGTTGACCAGAT

Target: SUMO::TaWRKY53 (Triticum aestivum L. cv. Gamtoos-R)
Experiment: EMSA; Probe EMSA: 10 mM Tris, 50 mM KCl, 1 mM DTT, pH 7.5, 20 min, room temperature; 1-kb EMSA: 10 mM Tris, 100 mM KCl, 1 mM EDTA, 0.1 mM DTT, 5% glycerol, 0.01 mg/mL BSA, pH 7.5, room temperature
Details: protein: recombinant; tags: N-terminal 6xHis-SUMO; label: biotin; blunt

SUMO::TaWRKY53 (Triticum aestivum L. cv. Gamtoos-R), sequence (chain, as listed by the source): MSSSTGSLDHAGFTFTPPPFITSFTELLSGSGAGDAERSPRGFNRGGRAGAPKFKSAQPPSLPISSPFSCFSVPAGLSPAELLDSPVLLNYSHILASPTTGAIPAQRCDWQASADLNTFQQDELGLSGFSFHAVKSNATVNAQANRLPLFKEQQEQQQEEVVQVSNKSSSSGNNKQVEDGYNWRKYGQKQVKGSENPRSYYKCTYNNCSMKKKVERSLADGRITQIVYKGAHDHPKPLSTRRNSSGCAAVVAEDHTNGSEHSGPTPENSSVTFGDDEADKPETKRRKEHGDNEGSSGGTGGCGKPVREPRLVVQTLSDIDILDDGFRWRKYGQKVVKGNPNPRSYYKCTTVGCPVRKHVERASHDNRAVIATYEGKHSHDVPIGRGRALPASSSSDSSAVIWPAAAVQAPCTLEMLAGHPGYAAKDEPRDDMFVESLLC

Binder	binding result
B1	binds
B2	binds

Source: publication PMC4059961, “The transcriptional network of WRKY53 in cereals links oxidative responses to biotic and abiotic stress inputs”
